For experiment [1], the target named is T1, human IL-36R (human) (UniProt Q9HB29).
T1 sequence (looked up): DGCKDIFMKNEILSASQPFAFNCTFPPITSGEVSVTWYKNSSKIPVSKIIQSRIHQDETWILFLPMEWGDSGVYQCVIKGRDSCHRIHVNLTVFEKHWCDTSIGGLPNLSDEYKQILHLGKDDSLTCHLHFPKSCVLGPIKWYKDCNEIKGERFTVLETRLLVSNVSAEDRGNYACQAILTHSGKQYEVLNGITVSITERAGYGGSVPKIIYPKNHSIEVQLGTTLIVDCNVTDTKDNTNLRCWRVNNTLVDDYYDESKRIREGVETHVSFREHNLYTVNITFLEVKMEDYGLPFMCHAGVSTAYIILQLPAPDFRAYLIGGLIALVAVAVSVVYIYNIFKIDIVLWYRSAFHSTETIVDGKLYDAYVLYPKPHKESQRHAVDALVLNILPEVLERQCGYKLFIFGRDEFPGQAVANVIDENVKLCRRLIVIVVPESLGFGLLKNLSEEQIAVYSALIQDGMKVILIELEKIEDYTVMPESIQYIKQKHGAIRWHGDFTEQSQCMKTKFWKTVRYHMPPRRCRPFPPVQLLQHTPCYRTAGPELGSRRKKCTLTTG
Description: flow cytometry on cells, hybridoma supernatant.

The next experiment deals with monkey IL-36R (monkey). Description: flow cytometry on cells, hybridoma supernatant.
In a further experiment the target is human IL1R1 (human) (UniProt P14778). Description: flow cytometry on cells, hybridoma supernatant. In general terms: In flow cytometry, cells or beads pass a laser one at a time.
human IL1R1 (human), sequence (P14778 18-569): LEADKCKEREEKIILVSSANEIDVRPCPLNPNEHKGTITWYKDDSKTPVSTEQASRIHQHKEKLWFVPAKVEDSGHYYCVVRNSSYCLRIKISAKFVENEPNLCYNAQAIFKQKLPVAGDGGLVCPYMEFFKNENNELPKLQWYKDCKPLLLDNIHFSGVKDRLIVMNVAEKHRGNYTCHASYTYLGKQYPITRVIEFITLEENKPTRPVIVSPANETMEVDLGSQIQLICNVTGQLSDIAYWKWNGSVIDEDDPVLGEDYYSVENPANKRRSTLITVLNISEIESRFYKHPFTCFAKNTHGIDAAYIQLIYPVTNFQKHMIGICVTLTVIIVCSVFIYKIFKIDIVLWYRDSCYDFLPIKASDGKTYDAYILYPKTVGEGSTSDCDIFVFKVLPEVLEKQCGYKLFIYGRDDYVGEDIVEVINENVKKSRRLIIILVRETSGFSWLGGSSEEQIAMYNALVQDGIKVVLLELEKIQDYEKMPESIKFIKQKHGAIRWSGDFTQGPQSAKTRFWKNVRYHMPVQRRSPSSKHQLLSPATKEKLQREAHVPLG
The target in experiment [2] is T2, human IL-36R (antigen of the OD450 binding screen of Table 1) (human) (UniProt Q9HB29).
T2 sequence (looked up): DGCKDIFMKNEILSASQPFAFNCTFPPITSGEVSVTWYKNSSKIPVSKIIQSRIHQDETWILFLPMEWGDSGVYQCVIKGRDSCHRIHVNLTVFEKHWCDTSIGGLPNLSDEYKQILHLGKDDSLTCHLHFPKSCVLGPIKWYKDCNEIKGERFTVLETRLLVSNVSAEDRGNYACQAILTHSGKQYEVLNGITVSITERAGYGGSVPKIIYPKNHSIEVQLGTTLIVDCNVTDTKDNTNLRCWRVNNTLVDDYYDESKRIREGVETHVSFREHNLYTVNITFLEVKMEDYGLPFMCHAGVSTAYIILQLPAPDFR
Description: OD450 binding screen of hybridoma supernatant, antigen not named.

Experiment [3] concerns the target T1, human IL-36R (human). Description: cell-based or functional assay.

B1: 111(1)-E5 (antibody, part only; not given: light chain, V domains shown, part only)
VH: QVQLQQTGSVLVRPGTSVKLSCKASGYTFTSSWMHWAKQRPGQGLEWIGEIHPNSAKTNYNEKFKGKATLTVDTFSSTAYVDLSSLASEDSAVYYCARVDYGKPWFAYWGQGTLVTVSA
On to B1, for which, in the experiment with human IL-36R (human) [1], the MFI ratio (hybridoma supernatant/positive control) was 81.6%. For the same molecule, in the experiment with monkey IL-36R (monkey), the MFI ratio (hybridoma supernatant/positive control) is 105%. Also, the MFI ratio (hybridoma supernatant/negative control) in the experiment with human IL1R1 (human) is 118%. In experiment [2], this molecule registered a Binding activity OD450 value of 2.16 OD450. For the same molecule, in the experiment with human IL-36R (human) [3], the IL-6 ratio in blockage of human IL36β functional activity (hybridoma supernatant/positive control) is 0.07%, the IL-8 ratio in blockage of human IL36α functional activity (hybridoma supernatant/positive control) is -4.02%, the IL-8 ratio in blockage of human IL36β functional activity (hybridoma supernatant/positive control) was -4.62% and the IL-8 ratio in blockage of human IL36γ functional activity (hybridoma supernatant/positive control) was -3.86%.

Source of the values: patent EP4289863A9.
